Entries after “also recorded” stand apart in the source; their conditions may differ.
B1: fuLAP2: A. fumigatus leucine aminopeptidase, 498 amino acid residues (SEQ ID NO: 9) (protein, listed as Aspergillus fumigatus)
chain: MKLLYLTSFASLAVANGPGWDWKPRVHPKVLPQMIHLWDLLQGAQQLEDFAYAYPERNRVFGGRAHEDTVNYLYRELKKTGYYDVYKQPQVHQWTRADQALTVDGQSYDATTMTYSPSVNATAPLAVVNNLGCVEADYPADLTGKIALISRGECTFATKSVLSAKAGAAAALVYNNIEGSMAGTLGGATSELGAYAPIAGISLADGQALIQMIQAGTVTANLWIDSQVENRTTYNVIAQTKGGDPNNVVALGGHTDSVEAGPGINDDGSGIISNLVVAKALTRFSVKNAVRFCFWTAEEFGLLGSNYYVNSLNATEQAKIRLYLNFDMIASPNYALMIYDGDGSAFNLTGPAGSAQIERLFEDYYTSIRKPFVPTEFNGRSDYQAFILNGIPAGGLFTGAEAIKTEEQAQLFGGQAGVALDANYHAKGDNMTNLNREAFLINSRATAFAVATYANSLDSIPPRNMTTVVKRSQLEQAMKRTPHTHTGGTGCYKDRVEQ
B2: pkLAP: commercially available microsomal LAP from porcine kidney (MEROPS>M1 family), Sigma (protein, UniProt P15145 2-963, looked up)
Aminopeptidase N: AKGFYISKALGILGILLGVAAVATIIALSVVYAQEKNKNAEHVPQAPTSPTITTTAAITLDQSKPWNRYRLPTTLLPDSYNVTLRPYLTPNADGLYIFKGKSIVRLLCQEPTDVIIIHSKKLNYTTQGHMVVLRGVGDSQVPEIDRTELVELTEYLVVHLKGSLQPGHMYEMESEFQGELADDLAGFYRSEYMEGNVKKVLATTQMQSTDARKSFPCFDEPAMKATFNITLIHPNNLTALSNMPPKGSSTPLAEDPNWSVTEFETTPVMSTYLLAYIVSEFQSVNETAQNGVLIRIWARPNAIAEGHGMYALNVTGPILNFFANHYNTSYPLPKSDQIALPDFNAGAMENWGLVTYRENALLFDPQSSSISNKERVVTVIAHELAHQWFGNLVTLAWWNDLWLNEGFASYVEYLGADHAEPTWNLKDLIVPGDVYRVMAVDALASSHPLTTPAEEVNTPAQISEMFDSISYSKGASVIRMLSNFLTEDLFKEGLASYLHAFAYQNTTYLDLWEHLQKAVDAQTSIRLPDTVRAIMDRWTLQMGFPVITVDTKTGNISQKHFLLDSESNVTRSSAFDYLWIVPISSIKNGVMQDHYWLRDVSQAQNDLFKTASDDWVLLNVNVTGYFQVNYDEDNWRMIQHQLQTNLSVIPVINRAQVIYDSFNLATAHMVPVTLALDNTLFLNGEKEYMPWQAALSSLSYFSLMFDRSEVYGPMKKYLRKQVEPLFQHFETLTKNWTERPENLMDQYSEINAISTACSNGLPQCENLAKTLFDQWMSDPENNPIHPNLRSTIYCNAIAQGGQDQWDFAWGQLQQAQLVNEADKLRSALACSNEVWLLNRYLGYTLNPDLIRKQDATSTINSIASNVIGQPLAWDFVQSNWKKLFQDYGGGSFSFSNLIQGVTRRFSSEFELQQLEQFKKNNMDVGFGSGTRALEQALEKTKANIKWVKENKEVVLNWFIEHS

How the values were obtained:
[1] = system: gliadin 33mer (fragment 57-89 of gliadin MM1); assay: Digestion of gliadin 33mer (RP-HPLC, ESI-MS); format: biochemical, wheat; details: 37° C.; for digestion of gliadin 33mer, mixed with ruDPPIV: enzyme plus ruDPPIV (DPPIV)
[2] = system: gliadin 14mer PQPQLPYPQPQLPY (fragment 82-95 of α/β gliadin AIV); format: biochemical, wheat; details: 4 h, 37° C.
[3] = format: biochemical; details: substrate Lys(Abz)Pro-PropNA 5 mM, 37° C., 60 min
[4] = format: biochemical; details: for hydrolytic activity toward Ala-AMC in comparison to Leu-MCA used as a standard: substrate Ala-AMC 5 mM; for hydrolytic activity toward Ala-AMC in comparison to Leu-MCA used as a standard / hydrolytic activity toward Arg-AMC in comparison to Leu-MCA used as a standard / hydrolytic activity toward Asn-AMC in comparison to Leu-MCA used as a standard / hydrolytic activity toward Asp-AMC in comparison to Leu-MCA used as a standard / hydrolytic activity toward Cys-AMC in comparison to Leu-MCA used as a standard / hydrolytic activity toward Gln-AMC in comparison to Leu-MCA used as a standard / hydrolytic activity toward Glu-AMC in comparison to Leu-MCA used as a standard / hydrolytic activity toward Gly-AMC in comparison to Leu-MCA used as a standard / hydrolytic activity toward Gly-Pro-AMC in comparison to Leu-MCA used as a standard / hydrolytic activity toward His-AMC in comparison to Leu-MCA used as a standard / hydrolytic activity toward Hyp-AMC in comparison to Leu-MCA used as a standard / hydrolytic activity toward Ile-AMC in comparison to Leu-MCA used as a standard / hydrolytic activity toward Leu-AMC in comparison to Leu-MCA used as a standard / hydrolytic activity toward Lys-AMC in comparison to Leu-MCA used as a standard / hydrolytic activity toward Met-AMC in comparison to Leu-MCA used as a standard / hydrolytic activity toward Phe-AMC in comparison to Leu-MCA used as a standard / hydrolytic activity toward Pro-AMC in comparison to Leu-MCA used as a standard / hydrolytic activity toward Pyr-AMC in comparison to Leu-MCA used as a standard / hydrolytic activity toward Ser-AMC in comparison to Leu-MCA used as a standard / hydrolytic activity toward Thr-AMC in comparison to Leu-MCA used as a standard / hydrolytic activity toward Val-AMC in comparison to Leu-MCA used as a standard: 37° C., 60 min; for hydrolytic activity toward Arg-AMC in comparison to Leu-MCA used as a standard: substrate Arg-AMC 5 mM; for hydrolytic activity toward Asn-AMC in comparison to Leu-MCA used as a standard: substrate Asn-AMC 5 mM; for hydrolytic activity toward Asp-AMC in comparison to Leu-MCA used as a standard: substrate Asp-AMC 5 mM; for hydrolytic activity toward Cys-AMC in comparison to Leu-MCA used as a standard: substrate Cys-AMC 5 mM; for hydrolytic activity toward Gln-AMC in comparison to Leu-MCA used as a standard: substrate Gln-AMC 5 mM; for hydrolytic activity toward Glu-AMC in comparison to Leu-MCA used as a standard: substrate Glu-AMC 5 mM; for hydrolytic activity toward Gly-AMC in comparison to Leu-MCA used as a standard: substrate Gly-AMC 5 mM; for hydrolytic activity toward Gly-Pro-AMC in comparison to Leu-MCA used as a standard: substrate Gly-Pro-AMC 5 mM; for hydrolytic activity toward His-AMC in comparison to Leu-MCA used as a standard: substrate His-AMC 5 mM; for hydrolytic activity toward Hyp-AMC in comparison to Leu-MCA used as a standard: substrate Hyp-AMC 5 mM; for hydrolytic activity toward Ile-AMC in comparison to Leu-MCA used as a standard: substrate Ile-AMC 5 mM; for hydrolysis of Leu-AMC: substrate Leu-AMC; for hydrolytic activity toward Leu-AMC in comparison to Leu-MCA used as a standard: substrate Leu-AMC 5 mM; for hydrolytic activity toward Lys-AMC in comparison to Leu-MCA used as a standard: substrate Lys-AMC 5 mM; for hydrolytic activity toward Met-AMC in comparison to Leu-MCA used as a standard: substrate Met-AMC 5 mM; for hydrolytic activity toward Phe-AMC in comparison to Leu-MCA used as a standard: substrate Phe-AMC 5 mM; for hydrolytic activity toward Pro-AMC in comparison to Leu-MCA used as a standard: substrate Pro-AMC 5 mM; for hydrolytic activity toward Pyr-AMC in comparison to Leu-MCA used as a standard: substrate Pyr-AMC 5 mM; for hydrolytic activity toward Ser-AMC in comparison to Leu-MCA used as a standard: substrate Ser-AMC 5 mM; for hydrolytic activity toward Thr-AMC in comparison to Leu-MCA used as a standard: substrate Thr-AMC 5 mM; for hydrolytic activity toward Val-AMC in comparison to Leu-MCA used as a standard: substrate Val-AMC 5 mM

Molecule	digestion of gliadin 33mer, enzyme alone [1]	hydrolytic activity toward Lys(Abz)Pro-PropNA in comparison to Leu-MCA used as a standard [3] [%]	hydrolytic activity toward Ala-AMC in comparison to Leu-MCA used as a standard [4] [%]	hydrolytic activity toward Arg-AMC in comparison to Leu-MCA used as a standard [4] [%]	hydrolytic activity toward Asn-AMC in comparison to Leu-MCA used as a standard [4] [%]	hydrolytic activity toward Asp-AMC in comparison to Leu-MCA used as a standard [4] [%]	hydrolytic activity toward Cys-AMC in comparison to Leu-MCA used as a standard [4] [%]	hydrolytic activity toward Gln-AMC in comparison to Leu-MCA used as a standard [4] [%]	hydrolytic activity toward Glu-AMC in comparison to Leu-MCA used as a standard [4] [%]	hydrolytic activity toward Gly-AMC in comparison to Leu-MCA used as a standard [4] [%]	hydrolytic activity toward Gly-Pro-AMC in comparison to Leu-MCA used as a standard [4] [%]	hydrolytic activity toward His-AMC in comparison to Leu-MCA used as a standard [4] [%]	hydrolytic activity toward Hyp-AMC in comparison to Leu-MCA used as a standard [4] [%]	hydrolytic activity toward Ile-AMC in comparison to Leu-MCA used as a standard [4] [%]	hydrolysis of Leu-AMC [4]	hydrolytic activity toward Leu-AMC in comparison to Leu-MCA used as a standard [4] [%]	hydrolytic activity toward Lys-AMC in comparison to Leu-MCA used as a standard [4] [%]	hydrolytic activity toward Met-AMC in comparison to Leu-MCA used as a standard [4] [%]	hydrolytic activity toward Phe-AMC in comparison to Leu-MCA used as a standard [4] [%]	hydrolytic activity toward Pro-AMC in comparison to Leu-MCA used as a standard [4] [%]	other results
ruDPPIV: T. rubrum dipeptidylpeptidase IV (SEQ ID NO: 35)	not a substrate	–	–	–	–	–	–	–	–	–	–	–	–	–	–	–	–	–	–	–	digestion of gliadin 14mer, enzyme alone [2]: not able to hydrolyse
B1	–	0.0	11.7	2.3	73.5	0.3	2.1	37.0	1.1	2.2	74.1	1.9	13.3	1.8	efficiently hydrolyzed; also recorded: common preference	100.0	2.3	89.5	8.9	7.4	hydrolytic activity toward Pyr-AMC in comparison to Leu-MCA used as a standard [4]: 0.0%; hydrolytic activity toward Ser-AMC in comparison to Leu-MCA used as a standard [4]: 10.3%; hydrolytic activity toward Thr-AMC in comparison to Leu-MCA used as a standard [4]: 0.1%; hydrolytic activity toward Val-AMC in comparison to Leu-MCA used as a standard [4]: 0.8%; digestion of gliadin 33mer, mixed with ruDPPIV [1]: same HPLC pattern
B2	partial deletion of N-terminal Leu and C-terminal Phe	0.0	584.7	174.8	33.9	0.9	35.5	50.7	4.7	74.8	16.7	17.6	1.7	6.3	efficiently hydrolyzed; also recorded: common preference	100.0	70.1	46.1	184.4	7.9	hydrolytic activity toward Ala-AMC ([4]; compared to Leu-AMC): extremely high efficiency; hydrolytic activity toward Arg-AMC ([4]; compared to Leu-AMC): extremely high efficiency; hydrolytic activity toward Pyr-AMC in comparison to Leu-MCA used as a standard [4]: 0.0%; hydrolytic activity toward Ser-AMC in comparison to Leu-MCA used as a standard [4]: 24.6%; hydrolytic activity toward Thr-AMC in comparison to Leu-MCA used as a standard [4]: 4.4%; hydrolytic activity toward Val-AMC in comparison to Leu-MCA used as a standard [4]: 4.0%; digestion of gliadin 33mer, mixed with ruDPPIV [1]: does not modify the profile
